# Experimental data as given in US10683329B2, “Dual-site BACE1 inhibitors” (priority 2014, dated 2020).
# *1 amine or outer side, *2 acyl side, *3 side chain or, on linkers, in order; H or OH if unused. Where no end group is shown, it is not given here. [ ]: non-standard residue; d: D form. The star is where a group is joined. Chol‑27‑TFA‑ester = succinamic acid (3S,8S,9S,10R,13R,14S,17R)-17-[(1R,5R)-1,5-dimethyl-6-(2,2,2-trifluoro-acetoxy)-hexyl]-10,13-dimethyl-2,3,4,7,8,9,10,11,12,13,14,15,16,17-tetradecahydro-1H-cyclopenta[a]phenanthren-3-yl ester, C[C@H](CCC[C@@H](C)[C@H]1CC[C@H]2[C@@H]3CC=C4C[C@@H](OC(=O)CCC(=O)*)CC[C@]4(C)[C@H]3CC[C@]12C)COC(=O)C(F)(F)F; MetSta(3S,4S) = CSCC[C@H](N[*:1])[C@@H](O)CC(=O)[*:2]; Sta = CC(C)C[C@H](N)[C@@H](O)CC(=O)O; 27‑OH‑Chol = 27-hydroxycholesterol; PEG4 = NCCOCCOCCOCCOCCC(=O)O; Lauroyl = CCCCCCCCCCCC(=O)*; PEG3 = NCCOCCOCCOCCC(=O)O; Aun = NCCCCCCCCCCC(=O)O; Ahx = NCCCCCC(=O)O
# Target: BACE1 enzyme (UniProt P56817 46-501, limits assumed)
# Sequence (P56817 46-501 limits assumed): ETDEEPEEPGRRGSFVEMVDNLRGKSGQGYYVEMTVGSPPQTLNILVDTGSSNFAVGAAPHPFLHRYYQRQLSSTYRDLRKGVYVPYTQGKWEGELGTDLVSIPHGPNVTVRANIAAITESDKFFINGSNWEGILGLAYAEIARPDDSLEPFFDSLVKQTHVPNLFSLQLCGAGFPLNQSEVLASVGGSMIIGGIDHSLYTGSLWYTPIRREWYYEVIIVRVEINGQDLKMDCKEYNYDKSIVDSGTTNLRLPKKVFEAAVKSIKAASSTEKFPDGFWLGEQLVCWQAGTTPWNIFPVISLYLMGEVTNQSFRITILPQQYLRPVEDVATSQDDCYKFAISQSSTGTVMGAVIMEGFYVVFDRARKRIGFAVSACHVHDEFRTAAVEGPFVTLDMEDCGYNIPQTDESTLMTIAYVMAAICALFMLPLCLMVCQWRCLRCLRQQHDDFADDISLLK
# Experiment: cell-based or functional assay
row,Binder,"IC50, cellular Aβ-lowering assay (Aβ40 in supernatant of HEK293 cells expressing human APP695) [nM]"
1,YPYFIPLKGGEVN[Sta]VAE[dP]K(Chol)-NH2 (also: 2TFA salt) [Tyr-Pro-Tyr-Phe-Ile-Pro-Leu-Lys-Gly-Gly-Glu-Val-Asn-Sta-Val-Ala-Glu-DPro-Lys(Chol)-NH2 x 2TFA],0.0235
2,YPKFIPLGGGEVN[Sta]VAE[dP]K(Chol)-NH2 (also: x 2TFA salt) [Tyr-Pro-Lys-Phe-Ile-Pro-Leu-Gly-Gly-Gly-Glu-Val-Asn-Sta-Val-Ala-Glu-DPro-Lys(Chol)-NH2 x 2TFA],0.0135
3,YKYFIPLG[dK]GEVN[Sta]VAE[dP]K(Chol'ester')-NH2 (also: x 3TFA salt),0.25
4,YPYFIPL[PEG4]EVN[Sta]VAE[dP]K(Chol)-NH2 (also: TFA salt) [Tyr-Pro-Tyr-Phe-Ile-Pro-Leu-PEG(4)-Glu-Val-Asn-Sta-Val-Ala-Glu-DPro-Lys(Chol)-NH2 x TFA],0.027
5,YPYFKPLG[dK]GEVN[Sta]VAE[dP]K(Chol)-NH2 (also: 3TFA salt) [Tyr-Pro-Tyr-Phe-Lys-Pro-Leu-Gly-DLys-Gly-Glu-Val-Asn-Sta-Val-Ala-Glu-DPro-Lys(Chol)-NH2 x 3TFA],0.0263
6,YPYFIPLGGGEVN[Sta]VAE[dP]K(Chol‑27‑TFA‑ester)-NH2 (also: x TFA salt),5.2
7,YPYFIPLGGGEVN[Sta]VAE[dP]K(Chol'ether')-NH2 (also: x TFA salt) [Tyr-Pro-Tyr-Phe-Ile-Pro-Leu-Gly-Gly-Gly-Glu-Val-Asn-Sta-Val-Ala-Glu-DPro-Lys(Chol'ether')-NH2 x TFA],0.0264
8,KPYFIPLG[dK]GEVN[Sta]VAE[dP]K(Chol'ester')-NH2 (also: x 3TFA salt),0.02
9,YPYFIPL[dK]GGEVN[Sta]VAE[dP]K(Chol)-NH2 (also: x 2TFA salt) [Tyr-Pro-Tyr-Phe-Ile-Pro-Leu-DLys-Gly-Gly-Glu-Val-Asn-Sta-Val-Ala-Glu-DPro-Lys(Chol)-NH2 x 2TFA],0.177
10,YPYFIPLGGGEVN[Sta]VAE[dP]K(27‑OH‑Chol)-NH2 (also: x TFA salt) [Tyr-Pro-Tyr-Phe-Ile-Pro-Leu-Gly-Gly-Gly-Glu-Val-Asn-Sta-Val-Ala-Glu-DPro-Lys(27-OH-Chol)-NH2 x TFA],6.3
11,YPYFIPL[Ahx]EVN[Sta]VAE[dP]K(Chol)-NH2 (also: TFA salt) [Tyr-Pro-Tyr-Phe-Ile-Pro-Leu-NH(CH2)5CO-Glu-Val-Asn-Sta-Val-Ala-Glu-DPro-Lys(Chol)-NH2 x TFA],0.075
12,"YPYFIPLGGGEVNLAAE[dP]K(Chol)-NH2 (also: Leu14*Ala15 Tang hydroxyethylene dipeptide isostere, trifluoroacetate salt) [Tyr-Pro-Tyr-Phe-Ile-Pro-Leu-Gly-Gly-Gly-Glu-Val-Asn-Leu*Ala-Ala-Glu-DPro-Lys(Chol)-NH2 x TFA]",0.0024
13,YPYFIPLGGGEVN[Sta]VAE[dP]K(C14)-NH2 (also: x TFA salt) [Tyr-Pro-Tyr-Phe-Ile-Pro-Leu-Gly-Gly-Gly-Glu-Val-Asn-Sta-Val-Ala-Glu-DPro-Lys(C14)-NH2 x TFA],140
14,YPYFIPLGKGEVN[Sta]VAE[dP]K(Chol)-NH2 (also: 2TFA salt) [Tyr-Pro-Tyr-Phe-Ile-Pro-Leu-Gly-Lys-Gly-Glu-Val-Asn-Sta-Val-Ala-Glu-DPro-Lys(Chol)-NH2 x 2TFA],0.0295
15,YPYFIPLGGEVN[Sta]VAE[dP]K(Chol)-NH2 (also: x TFA salt) [Tyr-Pro-Tyr-Phe-Ile-Pro-Leu-Gly-Gly-Glu-Val-Asn-Sta-Val-Ala-Glu-DPro-Lys(Chol)-NH2 x TFA],0.27
16,YPYFIPLGGGEVN[Sta]DAE[dP]K(Chol)-NH2 (also: x TFA salt) [Tyr-Pro-Tyr-Phe-Ile-Pro-Leu-Gly-Gly-Gly-Glu-Val-Asn-Sta-Asp-Ala-Glu-DPro-Lys(Chol)-NH2 x TFA],18
17,YPYFIPLGGGEVN[Sta]VAE[dP]K(Chol)-NH2 (also: x TFA salt) [Tyr-Pro-Tyr-Phe-Ile-Pro-Leu-Gly-Gly-Gly-Glu-Val-Asn-Sta-Val-Ala-Glu-DPro-Lys(Chol)-NH2 x TFA],0.027
18,YPYFKPL[PEG4]EVN[Sta]VAE[dP]K(Chol)-NH2 (numbers in words are those of the source; also: 2TFA salt) [Tyr-Pro-Tyr-Phe-Lys-Pro-Leu-PEG(4)-Glu-Val-Asn-Sta-Val-Ala-Glu-DPro-Lys(Chol)-NH2 x 2TFA],0.0235
19,YPYFIKLGGGEVN[Sta]VAE[dP]K(Chol)-NH2 (also: x 2TFA salt) [Tyr-Pro-Tyr-Phe-Ile-Lys-Leu-Gly-Gly-Gly-Glu-Val-Asn-Sta-Val-Ala-Glu-DPro-Lys(Chol)-NH2 x 2TFA],0.0117
20,YPYFIPLG[dK]GEVN[Sta]VAE[dP]K(Chol'ester')-NH2 (also: x 2TFA salt),0.025
21,LIYFPYPGGGEVN[Sta]VAE[dP]K(Chol)-NH2 (also: x TFA salt) [Leu-Ile-Tyr-Phe-Pro-Tyr-Pro-Gly-Gly-Gly-Glu-Val-Asn-Sta-Val-Ala-Glu-DPro-Lys(Chol)-NH2 x TFA],0.22
22,YPYFIPL[Aun]EVN[Sta]VAE[dP]K(Chol)-NH2 (also: TFA salt) [Tyr-Pro-Tyr-Phe-Ile-Pro-Leu-NH(CH2)10CO-Glu-Val-Asn-Sta-Val-Ala-Glu-DPro-Lys(Chol)-NH2 x TFA],0.36

row,Binder,"IC50, cellular Aβ-lowering assay (Aβ40 in supernatant of HEK293 cells expressing human APP695) [nM]"
1,"YPYFIPL[PEG3]EVN[MetSta(3S,4S)]VAE[dF]K(Chol)-NH2 (also: TFA salt) [Tyr-Pro-Tyr-Phe-Ile-Pro-Leu-PEG(3)-Glu-Val-Asn-MetSta-Val-Ala-Glu-DPhe-Lys(Chol)-NH2 x TFA]",0.036
2,YPYFIPLGGGEVN[Sta]VAEFK(Chol)-NH2 (also: x TFA salt) [Tyr-Pro-Tyr-Phe-Ile-Pro-Leu-Gly-Gly-Gly-Glu-Val-Asn-Sta-Val-Ala-Glu-Phe-Lys(Chol)-NH2 x TFA],0.19
3,"YPYFIPL[PEG4]EVN[MetSta(3S,4S)]VAE[dF]K(Chol)-NH2 (also: TFA salt) [Tyr-Pro-Tyr-Phe-Ile-Pro-Leu-PEG(4)-Glu-Val-Asn-MetSta-Val-Ala-Glu-DPhe-Lys(Chol)-NH2 x TFA]",0.018
4,YPYFKPLGGGEVN[Sta]VAE[dP]K(Chol)-NH2 (also: 2TFA salt) [Tyr-Pro-Tyr-Phe-Lys-Pro-Leu-Gly-Gly-Gly-Glu-Val-Asn-Sta-Val-Ala-Glu-DPro-Lys(Chol)-NH2 x 2TFA],0.00732
5,YPYKIPLG[dK]GEVN[Sta]VAE[dP]K(Chol'ester')-NH2 (also: x 3TFA salt),2.3
6,Ac-YPYFIPL[PEG4]EVN[Sta]VAE[dP]K(Chol)-NH2 [Ac-Tyr-Pro-Tyr-Phe-Ile-Pro-Leu-PEG(4)-Glu-Val-Asn-Sta-Val-Ala-Glu-DPro-Lys(Chol)-NH2],0.041
7,YPYFIKLG[dK]GEVN[Sta]VAE[dP]K(Chol)-NH2 (also: x 3TFA salt) [Tyr-Pro-Tyr-Phe-Ile-Lys-Leu-Gly-DLys-Gly-Glu-Val-Asn-Sta-Val-Ala-Glu-DPro-Lys(Chol)-NH2 x 3TFA],0.0176
8,"YPYFIPLGGGEVN[MetSta(3S,4S)]VAE[dF]K(C14)-NH2 (also: x TFA salt) [Tyr-Pro-Tyr-Phe-Ile-Pro-Leu-Gly-Gly-Gly-Glu-Val-Asn-MetSta-Val-Ala-Glu-DPhe-Lys(C14)-NH2 x TFA]",1260
9,YPYFIPLGGGGEVNXVAEFK (MetSta at 15; DPhe at 19; Lys(Chol) at 20; C-terminal NH2) [Tyr-Pro-Tyr-Phe-Ile-Pro-Leu-Gly-Gly-Gly-Gly-Glu-Val-Asn-MetSta-Val-Ala-Glu-DPhe-Lys(Chol)-NH2 x TFA],0.052
10,YPKFIPLG[dK]GEVN[Sta]VAE[dP]K(Chol)-NH2 (also: x 3TFA salt) [Tyr-Pro-Lys-Phe-Ile-Pro-Leu-Gly-DLys-Gly-Glu-Val-Asn-Sta-Val-Ala-Glu-DPro-Lys(Chol)-NH2 x 3TFA],0.0203
11,YPYFIPLGGKEVN[Sta]VAE[dP]K(Chol)-NH2 (also: 2TFA salt) [Tyr-Pro-Tyr-Phe-Ile-Pro-Leu-Gly-Gly-Lys-Glu-Val-Asn-Sta-Val-Ala-Glu-DPro-Lys(Chol)-NH2 x 2TFA],0.0771
12,YPKFKPLG[dK]GEVN[Sta]VAE[dP]K(Chol)-NH2 (also: x 4TFA salt) [Tyr-Pro-Lys-Phe-Lys-Pro-Leu-Gly-DLys-Gly-Glu-Val-Asn-Sta-Val-Ala-Glu-DPro-Lys(Chol)-NH2 x 4TFA],0.0218
13,YPYFIPLGGGEVN[Sta]VAE[dP]K(Lauroyl)-NH2 (also: x TFA salt) [Tyr-Pro-Tyr-Phe-Ile-Pro-Leu-Gly-Gly-Gly-Glu-Val-Asn-Sta-Val-Ala-Glu-DPro-Lys(C12)-NH2 x TFA],450
14,YPYFIPLGG[dK]EVN[Sta]VAE[dP]K(Chol)-NH2 (also: x 2TFA salt) [Tyr-Pro-Tyr-Phe-Ile-Pro-Leu-Gly-Gly-DLys-Glu-Val-Asn-Sta-Val-Ala-Glu-DPro-Lys(Chol)-NH2 x 2TFA],0.118
15,YPKFIPLG[dK]GEVN[Sta]VAE[dP]K(Chol'ether')-NH2 (also: x 3TFA salt),0.00828
16,LIYFPYPGGGGEVN[Sta]VAE[dP]K(Chol)-NH2 (also: x TFA salt) [Leu-Ile-Tyr-Phe-Pro-Tyr-Pro-Gly-Gly-Gly-Gly-Glu-Val-Asn-Sta-Val-Ala-Glu-DPro-Lys(Chol)-NH2 x TFA],0.28
17,Ac-YPYFIPLGGGEVN[Sta]VAE[dP]K(Chol)-NH2 (also: x TFA salt) [Ac-Tyr-Pro-Tyr-Phe-Ile-Pro-Leu-Gly-Gly-Gly-Glu-Val-Asn-Sta-Val-Ala-Glu-DPro-Lys(Chol)-NH2],0.017
18,YPYFIPLGGGGGGEVN[Sta]VAE[dP]K(Chol)-NH2 (also: TFA salt),0.028
19,YPYFIPL[PEG3]EVN[Sta]VAE[dP]K(Chol)-NH2 (also: TFA salt) [Tyr-Pro-Tyr-Phe-Ile-Pro-Leu-PEG(3)-Glu-Val-Asn-Sta-Val-Ala-Glu-DPro-Lys(Chol)-NH2 x TFA],0.043
20,YPYFIPLGGGGGEVNXVAEFK (MetSta at 16; DPhe at 20; Lys(Chol) at 21; C-terminal NH2),0.07
21,YPYFIKL[PEG4]EVN[Sta]VAE[dP]K(Chol)-NH2 (numbers in words are those of the source; also: x 2TFA salt) [Tyr-Pro-Tyr-Phe-Ile-Lys-Leu-PEG(4)-Glu-Val-Asn-Sta-Val-Ala-Glu-DPro-Lys(Chol)-NH2 x 2TFA],0.0228
